Measurements: the supplement of paper PMC11780869

Test system: Bacillus subtilis
Experiment: cleaved RNA product abundance (RNA/gDNA barcode ratio) relative to median wild-type variant (ratio to wild type); higher = more accumulation of the downstream cleavage product
Procedure, shortened: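 Reporter mRNAs based on truncated aprE or tetM carried barcoded, mutagenized RNase Y cleavage-site windows built from oligos with a 9% error rate and were integrated into the B. subtilis chromosome. Cultures grew in LB at 37°C from OD600 0.0003 to 0.3. Cleaved RNA was gel-selected, reverse transcribed and barcode-sequenced together with genomic DNA barcodes, and UMIs were collapsed. Cleaved product abundance is the per-construct ratio of RNA to gDNA barcodes, scaled to the median of constructs carrying the unmutated site.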

[1] = experiment (reporter, strain, medium): exp 4a: truncated aprE reporter, strain BJT201 with 2% xylose (RNase J1 expressed), cleavage site: cggR-gapA (positions -7 to +36 mutated)
[2] = experiment (reporter, strain, medium): exp 2b: truncated aprE reporter, strain BJT200, cleavage site: cggR-gapA (positions -7 to +36 mutated)
[3] = experiment (reporter, strain, medium): exp 8a: truncated aprE reporter, strain BJT201 with 2% xylose (RNase J1 expressed), cleavage site: glnRA (positions -5 to +31 mutated)

Sequence | cleaved RNA product abundance [1] | other results
ACAGACGAAGGAGCCGCAAAGAAGTTATTATTGGATGAATAATCCCTCAATATAAATATCTCTCACTTATTTAAA | 0.149 | –
ACAGACGAAGGAGCCGCATAGAAGTTATTAAGGGATGACTAATCCCTCAATATAAATATCTCTCACTTATTTAAA | 0.679 | –
ACAGACGAAGGAGCCGCAAAGATGTTATTAAGGGATGAATAATCCGTCAATATAAATATCTCTCACTTATTTAAA | 0.2 | cleaved RNA product abundance [2]: 0.113
CGACATGTCCCGCTTCTTTCATTAATCCGTTAGCAACTGTTCAGCTATATACATTTACCTTTTAAGAGGAGGAAT | – | cleaved RNA product abundance [3]: 0.344
ACAGACGAAGGAGCCGCAAAGAAGTCATTAAGGGATGAATAATCCCTCAAAATAAATATCTCTCACTTATTTAAA | 0.203 | –
ACAGACGAAGGAGCCGCAAAGAAGTTATTAAGTGATGAATAATCCCTGAATATAAATATCTCTCACTTATTTAAA | 0.0547 | cleaved RNA product abundance [2]: 0.0871
ACAGACGAAGGAGCCGCAAAGAAGTTATCAAATGATGAATAATCCCTCAATATAAATATCTCTCACTTATTTAAA | 0.123 | –
ACAGACGAAGGAGCCGCAAAGAAGTTATAAAGGGATGAATAATCCTTCAATATAAATATCTCTCACTTATTTAAA | 0.283 | cleaved RNA product abundance [2]: 0.174
CGACATGTCCCGCTTCTTTCATTAATCCGTTAGAAACTGTTTTGGTATATACATTTACCTTTTAAGAGGAGGAAT | – | cleaved RNA product abundance [3]: 0.104
ACAGACGAAGGAGCCGCAAAGAAGTTATTAAGGGATGATTAATCCCTAAATATAAATATCTCTCACTTATTTAAA | 0.599 | –
CGACATGTCCCGCTTCTTTCATTAATCCGTTACCAACTGTTTTGCTATATACTTTTACCTTTTAAGAGGAGGAAT | – | cleaved RNA product abundance [3]: 0.145
ACAGACGAAGGAGCCGCAAACAAGTTATTAAGGGATGAATAATCCATCAATATAAATATCTCTCACTTATTTAAA | 0.192 | cleaved RNA product abundance [2]: 0.182
ACAGACGAAGGAGCCGCAAAGAAGTTATTAAGTGACGAATAATCCCTCAATATAAATATCTCTCACTTATTTAAA | 0.0518 | –
ACAGACGAAGGAGCCGCAAAGAAGTTATTAAGGTATGAATCATCCCTCAATATAAATATCTCTCACTTATTTAAA | 0.176 | –
ACAGACGAAGGAGCCGCAAAGAAGTAATTAAGGGATGAATAATCCCTCAATATAACTATCTCTCACTTATTTAAA | 0.215 | –
CGACATGTCCCGCTTCTTTCATTACTCCGTTAGCAACTGTTTTACTATATACATTTACCTTTTAAGAGGAGGAAT | – | cleaved RNA product abundance [3]: 0.792
ACAGACGAAGGAGCCGCAATGAAGTTATTAAAGGATGAATAATCCCTCAATATAAATATCTCTCACTTATTTAAA | 0.181 | cleaved RNA product abundance [2]: 0.181
ACAGACGAAGGAGCCGCAATGAAGTTATTAAGAGATGAATAATCCCTCAATATAAATATCTCTCACTTATTTAAA | 0.204 | cleaved RNA product abundance [2]: 0.131
ACAGACGAAGGAGCCGCAATGAAGATATTAAGGGATGAATAATCCCTCAATATAAATATCTCTCACTTATTTAAA | 0.667 | –
CGACATGTCCCGCTTCTTTCATTAATCCGTTAGTAACTGTTTTGCTATAGACATTTACCTTTTAAGAGGAGGAAT | – | cleaved RNA product abundance [3]: 0.536
CGACATGTCCCGCTTCTTTCATTAATCCGTTACCAAGTGTTTTGCTATATACATTTACCTTTTAAGAGGAGGAAT | – | cleaved RNA product abundance [3]: 0.272
ACAGACGAAGGAGCCGCAAAGAAGTTATTAAGGGATGAATAATCCCTGAACATAAATATCTCTCACTTATTTAAA | 0.242 | –
ACAGACGAAGGAGCCGCAAAGAAGTTATTAAGGCATGAATAATCCCTCAATAAAAATATCTCTCACTTATTTAAA | 0.0606 | –
CGACATGTCCCGCTTCTTTCATTAATCCGTTAGCAACAGGTTTGCTATATACATTTACCTTTTAAGAGGAGGAAT | – | cleaved RNA product abundance [3]: 0.389
CGACATGTCCCGCTTCTTTCATTAATCAGTTAGCAACTGTTTTGCTATACACATTTACCTTTTAAGAGGAGGAAT | – | cleaved RNA product abundance [3]: 0.225
ACAGACGAAGGAGCCGCAAAGAAGTTATTAAAGGATGAAAAATCCCTCAATATAAATATCTCTCACTTATTTAAA | 0.183 | cleaved RNA product abundance [2]: 0.104
ACAGACGAAGGAGCCGCAAAGAAGTAATTAAGGGATGAATAATCCGTCAATATAAATATCTCTCACTTATTTAAA | 0.179 | –
ACAGACGAAGGAGCCGCAAAAAAGTTATTAAGGGATGAATAATCCCTCAATATATATATCTCTCACTTATTTAAA | 1.08 | –

Sequence | cleaved RNA product abundance [1] | other results
ACAGACGAAGGAGCCGCAAAGAAGTTCATAAGGGATGAATAATCCCTCAATATAAATATCTCTCACTTATTTAAA | – | cleaved RNA product abundance [2]: 0.162
ACAGACGAAGGAGCCGCAAAGACGTTATTAAGGGATGAATAATCCCTCTATATAAATATCTCTCACTTATTTAAA | 0.572 | –
CGACATGTCCCGCTTCTTTCATTAATCCGTTAGCAACTGTTTTGCTATATACAATTGCCTTTTAAGAGGAGGAAT | – | cleaved RNA product abundance [3]: 0.532
CGACATGTCCCGCTTCTTTCATTAATCCATTAGCAATTGTTTTGCTATATACATTTACCTTTTAAGAGGAGGAAT | – | cleaved RNA product abundance [3]: 0.776
ACAGACGAAGGAGCCGCAAAGAAGTTATTAATGTATGAATAATCCCTCAATATAAATATCTCTCACTTATTTAAA | 0.1 | cleaved RNA product abundance [2]: 0.101
CGACATGTCCCGCTTCTTTCATTAATCCGTTAGCAACTTTTTAGCTATATACATTTACCTTTTAAGAGGAGGAAT | – | cleaved RNA product abundance [3]: 0.565
CGACATGTCCCGCTTCTTTCATTAATCCGTTAGCAACTGTTTTGTTAAATACATTTACCTTTTAAGAGGAGGAAT | – | cleaved RNA product abundance [3]: 0.414
ACAGACGAAGGAGCCGCAAAGAAGTTATTAAGGGATGAATAATCCATCAATAGAAATATCTCTCACTTATTTAAA | 0.0602 | cleaved RNA product abundance [2]: 0.0728
ACAGACGAAGGAGCCGCAAAGAGGTTATTAAGCGATGAATAATCCCTCAATATAAATATCTCTCACTTATTTAAA | 0.0624 | –
ACAGACGAAGGAGCCGCAAAGAAGTTATTAAGAGATTAATAATCCCTCAATATAAATATCTCTCACTTATTTAAA | 0.115 | cleaved RNA product abundance [2]: 0.116
CGACATGTCCCGCTTCTTTCATTAATCCGTAAGCAACTGTTTTGCTACATACATTTACCTTTTAAGAGGAGGAAT | – | cleaved RNA product abundance [3]: 0.38
CGACATGTCCCGCTTCTTTCATTAATCCGTTAGTAACTGTTTTGCTATATACATATACCTTTTAAGAGGAGGAAT | – | cleaved RNA product abundance [3]: 0.305
ACAGACGAAGGAGCCGCAAAGAAGTTATAAAGGGATGAATAATCCCTCAATATTAATATCTCTCACTTATTTAAA | 0.105 | –
ACAGACGAAGGAGCCGCAAAGAAGTTATTAAGCAATGAATAATCCCTCAATATAAATATCTCTCACTTATTTAAA | 0.122 | cleaved RNA product abundance [2]: 0.0903
ACAGACGAAGGAGCCGCAAAGAAGTTTTTAAGGGATTAATAATCCCTCAATATAAATATCTCTCACTTATTTAAA | 0.364 | cleaved RNA product abundance [2]: 0.364
ACAGACGAAGGAGCCGCGAAGAAGTGATTAAGGGATGAATAATCCCTCAATATAAATATCTCTCACTTATTTAAA | 0.347 | –
ACAGACGAAGGAGCCGCAAAGGAGTTATTAAAGGATGAATAATCCCTCAATATAAATATCTCTCACTTATTTAAA | 0.108 | cleaved RNA product abundance [2]: 0.161
ACAGACGAAGGAGCCACAAAGAAGTTATTAAAGGATGAATAATCCCTCAATATAAATATCTCTCACTTATTTAAA | – | cleaved RNA product abundance (experiment (reporter, strain, medium): exp 6: tetM reporter, strain 168, cleavage site: cggR-gapA (positions -7 to +36 mutated)): 0.254
ACAGACGAAGGAGCCGCAAAGAAGTTATTAAGGGATGAATAGTCCCTCAATATAAAAATCTCTCACTTATTTAAA | 1 | –
CGACATGTCCCGCTTCTTTCATTAATGCGTTAGCAACTGTTTTTCTATATACATTTACCTTTTAAGAGGAGGAAT | – | cleaved RNA product abundance [3]: 0.479
ACAGACGAAGGAGCCGCAAAGAAGATATTAAGGGAGGAATAATCCCTCAATATAAATATCTCTCACTTATTTAAA | 0.643 | –
ACAGACGAAGGAGCCGCAAAGAAGTTATTAAGGGATGAATAATCACTCAATATAAATACCTCTCACTTATTTAAA | 0.061 | –
ACAGACGAAGGAGCCGCAAAGAAGTTATTAAGGGATCAATAATCCCTCAATATAATTATCTCTCACTTATTTAAA | – | cleaved RNA product abundance [2]: 0.468
ACAGACGAAGGAGCCGCGAAGAAGTAATTAAGGGATGAATAATCCCTCAATATAAATATCTCTCACTTATTTAAA | – | cleaved RNA product abundance [2]: 0.178
ACAGACGAAGGAGCCGCAAAGAACTTAATAAGGAATGAATAATCCCTCAATATAAATATCTCTCACTTATTTAAA | 0.133 | –
ACAGACGAAGGAGCCGCCAAGAAGTTATTAAGGGATTAATAATCCCTCAATATAAATATCTCTCACTTATTTAAA | 0.726 | –
CGACATGTCCCGCTTCTTTCATTAGTCCGTTAGCAACTGTTTTGCTATATATATTTACCTTTTAAGAGGAGGAAT | – | cleaved RNA product abundance [3]: 0.842
